T1: recombinant human VEGFR3/Fc chimera (human, UniProt P35916 25-775)
T1 construct: Human VEGF receptor type 3, the soluble part fused to Fc; Commercial chimera, probably the extracellular domain on human IgG1 Fc; also called soluble VEGFR3/Fc chimera; source: bought: R&D Systems
T1 sequence (looked up): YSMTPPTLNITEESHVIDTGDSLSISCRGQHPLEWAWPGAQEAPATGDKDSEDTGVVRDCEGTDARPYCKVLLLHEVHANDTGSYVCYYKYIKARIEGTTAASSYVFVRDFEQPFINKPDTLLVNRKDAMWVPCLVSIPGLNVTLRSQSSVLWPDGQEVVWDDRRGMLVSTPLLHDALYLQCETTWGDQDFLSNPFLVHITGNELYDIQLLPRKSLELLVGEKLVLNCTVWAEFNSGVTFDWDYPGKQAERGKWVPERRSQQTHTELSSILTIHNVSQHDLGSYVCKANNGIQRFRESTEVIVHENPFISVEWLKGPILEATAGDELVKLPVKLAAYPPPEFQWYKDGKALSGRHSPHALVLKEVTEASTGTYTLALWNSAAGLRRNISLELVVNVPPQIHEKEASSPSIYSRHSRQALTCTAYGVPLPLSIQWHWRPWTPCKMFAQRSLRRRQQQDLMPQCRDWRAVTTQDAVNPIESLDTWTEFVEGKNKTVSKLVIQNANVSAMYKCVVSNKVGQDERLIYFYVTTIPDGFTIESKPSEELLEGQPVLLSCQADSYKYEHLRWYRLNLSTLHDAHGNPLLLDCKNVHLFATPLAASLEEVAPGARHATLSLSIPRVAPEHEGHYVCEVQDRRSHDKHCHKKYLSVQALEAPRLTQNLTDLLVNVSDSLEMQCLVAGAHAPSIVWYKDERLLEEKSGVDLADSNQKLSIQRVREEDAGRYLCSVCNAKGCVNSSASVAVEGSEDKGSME

B1: VEGF-D (ligand, human, UniProt O43915 89-205, looked up)
chain: FAATFYDIETLKVIDEEWQRTQCSPRETCVEVASELGKSTNTFFKPPCVNVFRCGGCCNEESLICMNTSTSYISKQLFEISVPLTSVPELVPVKVANHTGCKCLPTAPRHPYSIIRR
notes: Human VEGF-D, bought recombinant protein; source: bought: R&D Systems

How the values were obtained:
[1] = biological target: angiopoietin-1 (UniProt Q15389); test: ELISA; Ang-1 coated on 96-well plates at 4 μg/ml in PBS; purified Tie1-751(6His) applied, 1.5 hours at room temperature, three rinses in PBS/0.05% Tween-20; detected with biotin-labeled extracellular domain-specific antibody
angiopoietin-1, sequence (Q15389 16-498): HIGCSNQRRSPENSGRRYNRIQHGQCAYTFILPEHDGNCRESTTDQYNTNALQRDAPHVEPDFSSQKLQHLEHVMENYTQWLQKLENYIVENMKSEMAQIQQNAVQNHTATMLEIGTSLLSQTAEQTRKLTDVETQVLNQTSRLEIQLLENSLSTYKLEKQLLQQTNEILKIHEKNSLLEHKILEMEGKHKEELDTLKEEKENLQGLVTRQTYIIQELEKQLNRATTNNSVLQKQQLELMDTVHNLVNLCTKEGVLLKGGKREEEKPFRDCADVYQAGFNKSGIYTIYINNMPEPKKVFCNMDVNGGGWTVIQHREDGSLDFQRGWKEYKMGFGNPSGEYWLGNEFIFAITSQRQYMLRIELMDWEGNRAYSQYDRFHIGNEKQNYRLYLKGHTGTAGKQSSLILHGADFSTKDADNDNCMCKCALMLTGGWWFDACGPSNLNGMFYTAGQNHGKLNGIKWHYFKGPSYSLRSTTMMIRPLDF

[2] = biological target: T1, recombinant human VEGFR3/Fc chimera; test: co-IP; competition in the solution binding of VEGF-D to VEGFR3-765-Myc: fivefold molar excess of recombinant human VEGFR3/Fc or VEGFR1/Fc chimera; immunoprecipitation with anti-VEGF-D, blot with anti-Myc; settings: both partners purified

Molecule | Kd [1] | binding result [2]
Tie1-751(6His) (from UniProt P35590-1 22-740) (receptor) | 89 nM | 
B1 |  | binds

From paper PMC2575619, “Novel splice variants derived from the receptor tyrosine kinase superfamily are potential therapeutics for rheumatoid arthritis” (Arthritis Research & Therapy, 2008)
